Laboratory results: the supplement of paper PMC7877785
± gives the uncertainty stated by the source.

Test: self-splicing fitness, log relative to wild type (ln ratio); higher = more splicing; Tetrahymena group I intron in knt gene, E. coli kanamycin selection, DiMSum; sequences stand for … in CUCUCU…GGAGGGAAAAGUUAUCAGGCAUGCACCUGGUAGCUAGUCUUUAAACCAAUAGAUUGCAUCGGUUUAAAAGGCAAGACCGUCAAAUUGCGGGAAAGGGGUCAACAGCCGUUCAGUACCAAGUCUCAGGGGAAACUUUGAGAUGGCCUUGCAAAGGGUAUGGUAAUAAGCUGACGGACAUGGUCCUAACCACGCAGCCAAGUCCUAAGUCAACAGAUCUUCUGUUGAUAUGGAUGCAGUUCACAGACUAAAUGUCGGUCGGGGAAGAUGUAUUCUUCUCAUAAGAUAUAGUCGGACCUCUCCUUAAUGGGAGCUAGCGGAUGAAGUGAUGCAACACUGGAGCCGCUGGGAACUAAUUUGUAUGCGAAAGUAUAUUGAUUAGUUUUGGAGUACUCGUGGUCG
Method in brief: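 Six replicate transformations of E. coli BL21(DE3) with a pET-22b(+) library were grown overnight at 37°C or 30°C. The library randomised all eight P1ex-region intron nucleotides, the intron lying in the knt kanamycin-resistance gene, and plates were LB agar with or without 25 μg/mL kanamycin plus 100 μg/mL carbenicillin, 50 μM IPTG and 0.2% rhamnose. Pooled colonies were amplicon-sequenced on an Illumina HiSeq 2500, and fitness is the DiMSum error-weighted combination of wild-type-normalised replicate fold changes, kanamycin versus none.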

UAAAAGCAAUAUUACGACCC
self-splicing fitness (ln) (30 °C): -1.73 ± 0.28
self-splicing fitness (ln) (37 °C): 0.481 ± 0.33

UAAAAGCAAUAUUACGACGA
self-splicing fitness (ln) (30 °C): -0.526 ± 0.087
self-splicing fitness (ln) (37 °C): -0.201 ± 0.086

UAAAAGCAAUAUUACGAGCU
self-splicing fitness (ln) (30 °C): -2.07 ± 0.11
self-splicing fitness (ln) (37 °C): -1.68 ± 0.14

UAAAAGCAAUAUUACGAUCA
self-splicing fitness (ln) (30 °C): -0.503 ± 0.08
self-splicing fitness (ln) (37 °C): 0.0071 ± 0.11

UAAAAGCAAUAUUACGCAAG
self-splicing fitness (ln) (30 °C): -1.48 ± 0.06
self-splicing fitness (ln) (37 °C): -0.639 ± 0.073

UAAAAGCAAUAUUACGCCGA
self-splicing fitness (ln) (30 °C): -1.16 ± 0.12
self-splicing fitness (ln) (37 °C): -0.318 ± 0.14

UAAAAGCAAUAUUACGCCGU
self-splicing fitness (ln) (30 °C): -3.01 ± 0.21
self-splicing fitness (ln) (37 °C): -2.1 ± 0.22

UAAAAGCAAUAUUACGCGCU
self-splicing fitness (ln) (30 °C): -1.22 ± 0.14
self-splicing fitness (ln) (37 °C): 0.0478 ± 0.17

UAAAAGCAAUAUUACGCGGG
self-splicing fitness (ln) (30 °C): -2.62 ± 0.1
self-splicing fitness (ln) (37 °C): -1.43 ± 0.12

UAAAAGCAAUAUUACGCUGA
self-splicing fitness (ln) (30 °C): -2.35 ± 0.2
self-splicing fitness (ln) (37 °C): -0.613 ± 0.14

UAAAAGCAAUAUUACGCUGC
self-splicing fitness (ln) (30 °C): -2.51 ± 0.18
self-splicing fitness (ln) (37 °C): -1.35 ± 0.26

UAAAAGCAAUAUUACGCUUC
self-splicing fitness (ln) (37 °C): -3.19 ± 0.25

UAAAAGCAAUAUUACGCUUG
self-splicing fitness (ln) (30 °C): -1.9 ± 0.12
self-splicing fitness (ln) (37 °C): -0.981 ± 0.14

UAAAAGCAAUAUUACGCUUU
self-splicing fitness (ln) (30 °C): -3.78 ± 0.23
self-splicing fitness (ln) (37 °C): -2.52 ± 0.3

UAAAAGCAAUAUUACGGAAC
self-splicing fitness (ln) (30 °C): -3.24 ± 0.27
self-splicing fitness (ln) (37 °C): -2.68 ± 0.4

UAAAAGCAAUAUUACGGACC
self-splicing fitness (ln) (30 °C): -1.44 ± 0.2
self-splicing fitness (ln) (37 °C): -1.46 ± 0.29

UAAAAGCAAUAUUACGGCAC
self-splicing fitness (ln) (30 °C): -1.64 ± 0.14
self-splicing fitness (ln) (37 °C): -1.13 ± 0.2

UAAAAGCAAUAUUACGGUGA
self-splicing fitness (ln) (30 °C): -1.15 ± 0.077
self-splicing fitness (ln) (37 °C): -0.788 ± 0.076

UAAAAGCAAUAUUACGGUGG
self-splicing fitness (ln) (30 °C): -2.08 ± 0.088
self-splicing fitness (ln) (37 °C): -1.43 ± 0.089

UAAAAGCAAUAUUACGGUUU
self-splicing fitness (ln) (30 °C): -2.78 ± 0.095
self-splicing fitness (ln) (37 °C): -0.178 ± 0.091

UAAAAGCAAUAUUACGUAAU
self-splicing fitness (ln) (30 °C): -2.6 ± 0.12
self-splicing fitness (ln) (37 °C): -1.08 ± 0.13

UAAAAGCAAUAUUACGUGCA
self-splicing fitness (ln) (30 °C): -0.586 ± 0.067
self-splicing fitness (ln) (37 °C): -0.196 ± 0.079

UAAAAGCAAUAUUACGUGUU
self-splicing fitness (ln) (30 °C): -4.13 ± 0.15
self-splicing fitness (ln) (37 °C): -2.63 ± 0.14

UAAAAGCAAUAUUACGUUAA
self-splicing fitness (ln) (30 °C): -2.14 ± 0.15
self-splicing fitness (ln) (37 °C): -1.38 ± 0.13

UAACAGCAAUAUUACGAAAG
self-splicing fitness (ln) (30 °C): -1.44 ± 0.14
self-splicing fitness (ln) (37 °C): -1.76 ± 0.21

UAACAGCAAUAUUACGAAGU
self-splicing fitness (ln) (30 °C): -3.97 ± 0.17
self-splicing fitness (ln) (37 °C): -3.18 ± 0.16

UAACAGCAAUAUUACGACCC
self-splicing fitness (ln) (30 °C): -2.15 ± 0.18
self-splicing fitness (ln) (37 °C): -1.42 ± 0.19

UAACAGCAAUAUUACGACCU
self-splicing fitness (ln) (30 °C): -0.404 ± 0.098
self-splicing fitness (ln) (37 °C): 0.106 ± 0.11

UAACAGCAAUAUUACGACUU
self-splicing fitness (ln) (30 °C): -0.586 ± 0.084
self-splicing fitness (ln) (37 °C): 0.316 ± 0.11

UAACAGCAAUAUUACGAGCU
self-splicing fitness (ln) (30 °C): -3.71 ± 0.12
self-splicing fitness (ln) (37 °C): -2.37 ± 0.11

UAACAGCAAUAUUACGAGUU
self-splicing fitness (ln) (30 °C): -2.87 ± 0.11
self-splicing fitness (ln) (37 °C): -1.8 ± 0.12

UAACAGCAAUAUUACGAUAC
self-splicing fitness (ln) (30 °C): -2.65 ± 0.39
self-splicing fitness (ln) (37 °C): -2.7 ± 0.48

UAACAGCAAUAUUACGAUUU
self-splicing fitness (ln) (30 °C): -1.47 ± 0.056
self-splicing fitness (ln) (37 °C): -0.218 ± 0.065

UAACAGCAAUAUUACGCAUU
self-splicing fitness (ln) (30 °C): -2.59 ± 0.12
self-splicing fitness (ln) (37 °C): -0.539 ± 0.096

UAACAGCAAUAUUACGCGCG
self-splicing fitness (ln) (30 °C): -0.332 ± 0.064
self-splicing fitness (ln) (37 °C): -0.361 ± 0.078

UAACAGCAAUAUUACGCUAC
self-splicing fitness (ln) (30 °C): -3.37 ± 0.15
self-splicing fitness (ln) (37 °C): -2.24 ± 0.2

UAACAGCAAUAUUACGCUCG
self-splicing fitness (ln) (30 °C): -0.803 ± 0.096
self-splicing fitness (ln) (37 °C): -0.212 ± 0.098

UAACAGCAAUAUUACGGAGU
self-splicing fitness (ln) (30 °C): -3.7 ± 0.17
self-splicing fitness (ln) (37 °C): -1.41 ± 0.12

UAACAGCAAUAUUACGGAUC
self-splicing fitness (ln) (30 °C): -3.92 ± 0.22
self-splicing fitness (ln) (37 °C): -2.17 ± 0.15

UAACAGCAAUAUUACGGCCA
self-splicing fitness (ln) (30 °C): -0.28 ± 0.066
self-splicing fitness (ln) (37 °C): -0.439 ± 0.071

UAACAGCAAUAUUACGGCUU
self-splicing fitness (ln) (30 °C): -0.716 ± 0.082
self-splicing fitness (ln) (37 °C): -0.0863 ± 0.1

UAACAGCAAUAUUACGGUGC
self-splicing fitness (ln) (30 °C): -3.42 ± 0.23
self-splicing fitness (ln) (37 °C): -2.86 ± 0.2

UAACAGCAAUAUUACGGUUG
self-splicing fitness (ln) (30 °C): -0.966 ± 0.043
self-splicing fitness (ln) (37 °C): -1.04 ± 0.064

UAACAGCAAUAUUACGGUUU
self-splicing fitness (ln) (30 °C): -1.14 ± 0.05
self-splicing fitness (ln) (37 °C): -0.621 ± 0.063

UAACAGCAAUAUUACGUAAU
self-splicing fitness (ln) (30 °C): -3.27 ± 0.14
self-splicing fitness (ln) (37 °C): -2.23 ± 0.14

UAACAGCAAUAUUACGUAGC
self-splicing fitness (ln) (30 °C): -3.86 ± 0.17
self-splicing fitness (ln) (37 °C): -2.02 ± 0.11

UAACAGCAAUAUUACGUGCC
self-splicing fitness (ln) (30 °C): -3.5 ± 0.22
self-splicing fitness (ln) (37 °C): -1.9 ± 0.15
